In article doi:10.1101/2020.05.08.079574:
Ends that are not written are not given here.

How the values were obtained:
[1] = target: HAdV-64 virion (E3 deleted, replication-competent HAdV-64 virus with CMV-eGFP ORF, WT HAdV-64 capsid) (human adenovirus 64 (HAdV-64)); experiment: co-sedimentation
[2] = target: HAdV-5 virion (E1/E3-deleted, replication-defective HAdV-5 vector with eGFP cassette) (human adenovirus 5 (HAdV-5)) (UniProt P04133); experiment: co-sedimentation

Work on ATCYCRTGRCATRESLSGVCEISGRLYRLCCR (disulfide (positions not given here); also: oxidatively folded) [Human defensin 5] yielded a fold less HD5 bound per virion than to HAdV-5 at 20 µM HD5 [1] of 83 fold and a stoichiometry N (molecules of HD5 per virion) [2] of 7090.
